Test results as given in article PMC10079658.

Key:
[1] = system: His-CPA (C-terminus of RNA polymerase subunit PA) (Influenza A); assay: BLI; details: all A are 7-phenylbutyl-7-deaza-dA (A*); 25 mM HEPES, 5 mM MgCl2, 300 mM KCl, pH 7.4 (BLI) or 7.5 (SELEX), 24 °C; plate assay washes with 1% BSA, 0.05% Tween …; aptamers folded 95 °C 5 min then cooled
[2] = target: His-Hsp70 (Heat Shock Protein 70) (UniProt P0DMV8); assay: BLI; details: 25 mM HEPES, 5 mM MgCl2, 300 mM KCl, pH 7.4 (BLI) or 7.5 (SELEX), 24 °C, plate assay washes with 1% BSA
[3] = system: His-NPA (N-terminus of RNA polymerase subunit PA) (Influenza A); assay: BLI; details: all A are 7-phenylbutyl-7-deaza-dA (A*); 25 mM HEPES, 5 mM MgCl2, 300 mM KCl, pH 7.4 (BLI) or 7.5 (SELEX), 24 °C; plate assay washes with 1% BSA, 0.05% Tween …; aptamers folded 95 °C 5 min then cooled
His-SUMO [4] = assay: BLI; details: all A are 7-phenylbutyl-7-deaza-dA (A*); 25 mM HEPES, 5 mM MgCl2, 300 mM KCl, pH 7.4 (BLI) or 7.5 (SELEX), 24 °C; plate assay washes with 1% BSA, 0.05% Tween …; aptamers folded 95 °C 5 min then cooled
SBP-Hsp70 = SBP-Hsp70 (UniProt P0DMV8); assay: BLI; details: all A are 7-phenylbutyl-7-deaza-dA (A*); 25 mM HEPES, 5 mM MgCl2, 300 mM KCl, pH 7.4 (BLI) or 7.5 (SELEX), 24 °C; plate assay washes with 1% BSA, 0.05% Tween …; aptamers folded 95 °C 5 min then cooled
[5] = system: His-CPA (C-terminus of RNA polymerase subunit PA) (Influenza A); assay: fluorescence plate binding assay; details: all A are 7-phenylbutyl-7-deaza-dA (A*); 25 mM HEPES, 5 mM MgCl2, 300 mM KCl, pH 7.4 (BLI) or 7.5 (SELEX), 24 °C; plate assay washes with 1% BSA, 0.05% Tween …; aptamers folded 95 °C 5 min then cooled
[6] = target: His-Hsp70 (Heat Shock Protein 70) (UniProt P0DMV8); assay: fluorescence plate binding assay; details: 25 mM HEPES, 5 mM MgCl2, 300 mM KCl, pH 7.4 (BLI) or 7.5 (SELEX), 24 °C, plate assay washes with 1% BSA
[7] = system: His-NPA (N-terminus of RNA polymerase subunit PA) (Influenza A); assay: fluorescence plate binding assay; details: all A are 7-phenylbutyl-7-deaza-dA (A*); 25 mM HEPES, 5 mM MgCl2, 300 mM KCl, pH 7.4 (BLI) or 7.5 (SELEX), 24 °C; plate assay washes with 1% BSA, 0.05% Tween …; aptamers folded 95 °C 5 min then cooled
His-SUMO [8] = assay: fluorescence plate binding assay; details: all A are 7-phenylbutyl-7-deaza-dA (A*); 25 mM HEPES, 5 mM MgCl2, 300 mM KCl, pH 7.4 (BLI) or 7.5 (SELEX), 24 °C; plate assay washes with 1% BSA, 0.05% Tween …; aptamers folded 95 °C 5 min then cooled
[9] = all A are 7-phenylbutyl-7-deaza-dA (A*), 0.05% Tween …, aptamers folded 95 °C 5 min then cooled
[10] = none (natural dA), 0.05% Tween 20, aptamers folded 95 °C 5 min then …
[11] = all A after nt 19 are 7-phenylbutyl-7-deaza-dA (A*), 0.05% Tween 20, aptamers folded 95 °C 5 min then …
[12] = A after nt 19 are 7-phenylbutyl-7-deaza-dA (A*), 0.05% Tween 20, aptamers folded 95 °C 5 min then …

Sequence: AGACCTCATAGTCCTTCTAATTATACTCCAATGGCATAGCTGGCAC [HSc-9.1]
- Kd [1]: 1.24 µM
- Kd [2, 9]: 0.0291 µM
- Kd [3]: 1.55 µM
- Kd (His-SUMO [4]): 1.32 µM
- Kd (SBP-Hsp70): 0.0285 µM
- Kd [5]: 1 µM
- Kd [6, 9]: 0.0148 µM
- Kd [7]: 1.25 µM
- Kd (His-SUMO [8]): 1.11 µM

Sequence: GCAGCAGAGATAGACGCTAAGACCTCATAGTCCTTCTAATTATACTCCAATGGCATAGCTGGCAC [HSNat-9]
- Kd [2, 10]: 4.65 µM
- Kd [6, 10]: > 10 µM

Sequence: GCAGCAGAGATAGACGCTAAGACCTCATAGTCCTTCTAATTATACTCCAATGGCATAGCTGGCAC [HSc-9]
- Kd [2, 11]: 0.036 µM
- Kd [6, 11]: 0.0291 µM

Sequence: GCAGCAGAGATAGACGCTACCCCTTAATAAAAACATACGGTCCATTCCCGTCGTACGATTGATTG [Scr2]
- Kd [2, 12]: 0.62 µM
- Kd [6, 12]: 0.687 µM

Sequence: GCAGCAGAGATAGACGCTACCCCTTAATAAAAACATACGGTCCATTCCCGTCGTACGATTGATTG [Scr3]
- Kd [2, 12]: 0.7 µM
- Kd [6, 12]: 0.775 µM

Sequence: GCAGCAGAGATAGACGCTATCGATGACTATAATTCCCATCTATCATCCAATGGCATAGCTGGCAC [Scr1]
- Kd [2, 12]: 0.56 µM
- Kd [6, 12]: 0.536 µM

Sequence: GCAGCAGAGATAGACGCTATTCTCTAGACCTTCTAATTTACATACTCCAATGGCATAGCTGGCAC [HSNat-2]
- Kd [2, 10]: > 5 µM
- Kd [6, 10]: > 10 µM

Sequence: GCAGCAGAGATAGACGCTATTCTCTAGACCTTCTAATTTACATACTCCAATGGCATAGCTGGCAC [HSc-2]
- Kd ([2]; all A after nt 19 plus those marked A* are 7-phenylbutyl-7-deaza-dA, except none in 5' primer region (nt 1-19), printed A26 and later marked A*, 0.05% Tween 20, aptamers folded 95 °C 5 min then …): 0.066 µM
- Kd ([6]; error printed as 6 in Table 6, all A after nt 19 plus those marked A* are 7-phenylbutyl-7-deaza-dA, except none in 5' primer region (nt 1-19), printed A26 and later marked A*, 0.05% Tween 20, aptamers folded 95 °C 5 min then …): 0.245 µM
